Read-outs that look alike come from different tables or passages of the source.
Key:
RIG-I (full length) [1] = molecular target: T1, RIG-I (full length) (Homo sapiens, UniProt O95786 O95786:1-925); conditions: Km,RNA per estimated poly I:C strand, ATPase assay at 5 mM ATP
T1 sequence: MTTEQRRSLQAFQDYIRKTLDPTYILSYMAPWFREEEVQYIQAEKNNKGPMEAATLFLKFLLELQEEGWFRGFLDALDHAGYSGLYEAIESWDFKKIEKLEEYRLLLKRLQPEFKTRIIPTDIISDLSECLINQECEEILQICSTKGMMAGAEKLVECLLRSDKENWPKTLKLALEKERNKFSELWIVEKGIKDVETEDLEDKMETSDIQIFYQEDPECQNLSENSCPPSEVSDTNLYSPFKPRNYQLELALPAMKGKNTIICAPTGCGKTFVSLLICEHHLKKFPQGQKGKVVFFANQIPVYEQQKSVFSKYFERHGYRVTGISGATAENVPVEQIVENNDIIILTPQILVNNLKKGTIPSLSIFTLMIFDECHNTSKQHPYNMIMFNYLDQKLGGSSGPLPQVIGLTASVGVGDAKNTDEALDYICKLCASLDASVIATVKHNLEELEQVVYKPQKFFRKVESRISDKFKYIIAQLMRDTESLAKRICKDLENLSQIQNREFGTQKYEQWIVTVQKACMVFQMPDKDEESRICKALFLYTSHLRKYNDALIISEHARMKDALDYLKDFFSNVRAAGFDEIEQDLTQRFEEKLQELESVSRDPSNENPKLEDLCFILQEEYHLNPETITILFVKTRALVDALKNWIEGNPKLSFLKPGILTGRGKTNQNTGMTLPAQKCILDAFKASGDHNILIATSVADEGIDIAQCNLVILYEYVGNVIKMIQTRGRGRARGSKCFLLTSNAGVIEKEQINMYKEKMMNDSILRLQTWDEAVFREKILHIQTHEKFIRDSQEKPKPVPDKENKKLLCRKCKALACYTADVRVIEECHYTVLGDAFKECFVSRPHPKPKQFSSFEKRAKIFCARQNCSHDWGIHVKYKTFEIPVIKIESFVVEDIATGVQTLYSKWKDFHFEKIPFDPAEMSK

RIG-I (full length) [2] = molecular target: T1, RIG-I (full length); design: K half: unit not given here; conditions: 5'-OH
RIG-I (full length) [3] = molecular target: T1, RIG-I (full length); assay: Km,RNA, ATPase assay at 5 mM ATP; SD 0.10; conditions: tags: pET-SUMO (His-SUMO vector, Ni-NTA purified), E. coli Rosetta II(DE3); palindromic blunt duplex
Description: (§1) ATPase activity of RIG-I was measured with the NADH-coupled ATPase assay adapted from previously described protocols (Luo et al., 2011, Cell 147:409-422). Experiments were set up in 50 μl reaction volumes in 96 well format using Corning clear half-area flat bottom plates (#3695). Each 50 μl reaction contained 10 μl of 5×NADH enzyme buffer (1 mM NADH, 100 U of lactate dehydrogenase/mL, 500 U/mL of pyruvate kinase/mL, and 2.5 mM phosphoenolpyruvate), 5-10 nM of RIG-I, 5 μl of varying amounts of either RNA or ATP, and a remaining volume of 25 mM 3-(N-morpholino)propanesulfonic acid (MOPS) pH 7.4, 150 mM KCl, 2 mM DTT, and 0.1% Triton X-100. The rate of ATP hydrolysis was indirectly determined by monitoring the loss of NADH by reading the absorbance at 340 nm using a Biotek Synergy H1 plate reader.
(§2) To more precisely define the minimal duplex length for enzymatic activation of RIG-I, the steady-state kinetic parameters for RIG-I activation by RNA hairpins and double-stranded duplexes ranging in size from 8 to 30 base pairs, was measured with and without a 5′triphosphate (RNAs listed in Table 2). […]

RIG-I (full length) [4] = molecular target: T1, RIG-I (full length); assay: Km,RNA, ATPase assay at 5 mM ATP; SD 1.3; conditions: tags: pET-SUMO (His-SUMO vector, Ni-NTA purified), E. coli Rosetta II(DE3); palindromic blunt duplex
Description: as §1, §2

RIG-I (full length) [5] = molecular target: T1, RIG-I (full length); assay: Km,RNA, ATPase assay at 5 mM ATP; SD 3.4; conditions: tags: pET-SUMO (His-SUMO vector, Ni-NTA purified), E. coli Rosetta II(DE3); palindromic blunt duplex
Description: as §1, §2

RIG-I (full length) [6] = molecular target: T1, RIG-I (full length); assay: Km,RNA, ATPase assay at 5 mM ATP; SD 15; conditions: tags: pET-SUMO (His-SUMO vector, Ni-NTA purified), E. coli Rosetta II(DE3); palindromic blunt duplex
Description: as §1, §2

RIG-I (full length) [7] = molecular target: T1, RIG-I (full length); assay: Km,RNA, ATPase assay at 5 mM ATP; SD 0.50; conditions: tags: pET-SUMO (His-SUMO vector, Ni-NTA purified), E. coli Rosetta II(DE3)
Description: as §1, §2

RIG-I (full length) [8] = molecular target: T1, RIG-I (full length); assay: Km,RNA (apparent binding constant), ATPase assay at 5 mM ATP, 5 nM RIG-I, MOPS pH 7.4, 150 mM KCl; SD 0.20; conditions: tags: pET-SUMO (His-SUMO vector, Ni-NTA purified), E. coli Rosetta II(DE3); palindromic blunt duplex
Description: as §1, §2

RIG-I (full length) [9] = molecular target: T1, RIG-I (full length); assay: Km,RNA, ATPase assay at 5 mM ATP; SD 1.5; conditions: tags: pET-SUMO (His-SUMO vector, Ni-NTA purified), E. coli Rosetta II(DE3); palindromic blunt duplex
Description: as §1, §2

RIG-I (full length) [10] = molecular target: T1, RIG-I (full length); assay: Km,RNA, ATPase assay at 5 mM ATP; SD 1.0; conditions: tags: pET-SUMO (His-SUMO vector, Ni-NTA purified), E. coli Rosetta II(DE3)
Description: as §1
To more precisely define the minimal duplex length for enzymatic activation of RIG-I, the steady-state kinetic parameters for RIG-I activation by RNA hairpins and double-stranded duplexes ranging in size from 8 to 30 base pairs, was measured with and without a 5′triphosphate (RNAs listed in Table 2). In order to evaluate the respective roles of ATP and RNA in activation of the RIG-I:RNA complex, the Michaelis constant for ATP (K_{m,ATP}) at saturating RNA (500 nM) and the Michaelis constant for RNA (K_{m,RNA}) at saturating ATP (5 mM) was measured for each RNA construct (kcat, K_{m,ATP} and K_{m,RNA} summary in Table 4).

RIG-I (full length) [11] = molecular target: T1, RIG-I (full length); assay: Km,RNA, ATPase assay at 5 mM ATP; SD 0.20; conditions: tags: pET-SUMO (His-SUMO vector, Ni-NTA purified), E. coli Rosetta II(DE3); palindromic blunt duplex
Description: as §1, §2

RIG-I (full length) [12] = molecular target: T1, RIG-I (full length); assay: Km,RNA, ATPase assay at 5 mM ATP; SD 0.40; conditions: tags: pET-SUMO (His-SUMO vector, Ni-NTA purified), E. coli Rosetta II(DE3); hairpin, 8 bp, UUCG tetraloop, blunt end
Description: as §1, §2

RIG-I (full length) [13] = molecular target: T1, RIG-I (full length); assay: Km,RNA, ATPase assay at 5 mM ATP; SD 1.1; conditions: tags: pET-SUMO (His-SUMO vector, Ni-NTA purified), E. coli Rosetta II(DE3); palindromic blunt duplex
Description: as §1, §2

poly I:C fraction A7 (~25 bp)
K half (RIG-I (full length) [1]): 20 nM

poly I:C fraction A1 (~500 bp)
K half (RIG-I (full length) [1]): 20 nM

LMW poly I:C
activity (RIG-I (full length) [2]; ATPase kcat, Km,ATP 690 uM): 4.9 s⁻¹
K half (RIG-I (full length) [2]; Km,RNA, ATPase assay at 5 mM ATP, SD 1.1): 2.4

B1: 5'pppCM12 (dsRNA)
RNA 1: GGACGUACGUCC
RNA 2: GGACGUACGUCC
modifications: 5'-triphosphate
apparent K (half saturation) (RIG-I (full length) [3]): 2.62 nM

B2: GC14 (dsRNA)
RNA 1: GCGCGCGCGCGCGC
RNA 2: GCGCGCGCGCGCGC
modifications: 5'-OH
apparent K (half saturation) (RIG-I (full length) [4]): 23.2 nM

B3: GC18 (dsRNA)
RNA 1: GCGCGCGCGCGCGCGCGC
RNA 2: GCGCGCGCGCGCGCGCGC
modifications: 5'-OH
apparent K (half saturation) (RIG-I (full length) [5]): 26.7 nM

B4: GC8 (dsRNA)
RNA 1: GCGCGCGC
RNA 2: GCGCGCGC
modifications: 5'-OH
apparent K (half saturation) (RIG-I (full length) [6]): 91.4 nM

B5: 5'ppp10L (ssRNA)
RNA: GGACGUACGUUUCGACGUACGUCC
modifications: 5'-triphosphate
apparent K (half saturation) (RIG-I (full length) [7]; hairpin, 10 bp, UUCG tetraloop, blunt end): 4.46 nM

B6: 5'pppGC10 (dsRNA)
RNA 1: GGCGCGCGCC
RNA 2: GGCGCGCGCC
modifications: 5'-triphosphate
apparent K (half saturation) (RIG-I (full length) [8]): 1.16 nM

B7: GC10 (dsRNA)
RNA 1: GCGCGCGCGC
RNA 2: GCGCGCGCGC
modifications: 5'-OH
apparent K (half saturation) (RIG-I (full length) [9]): 24.4 nM

B8: 5'pppGC22 (dsRNA)
RNA 1: GGCGCGCGCGCGCGCGCGCGCC
RNA 2: GGCGCGCGCGCGCGCGCGCGCC
modifications: 5'-triphosphate
apparent K (half saturation) (RIG-I (full length) [10]; palindromic blunt duplex, two 5'ppp ends): 3.58 nM

B9: 5'pppGC12 (dsRNA)
RNA 1: GGCGCGCGCGCC
RNA 2: GGCGCGCGCGCC
modifications: 5'-triphosphate
apparent K (half saturation) (RIG-I (full length) [11]): 2.33 nM

B10: 5'ppp30L (ssRNA)
RNA: GGAUCGAUCGAUCGAUCGGCAUCGAUCGGCUUCGGCCGAUCGAUGCCGAUCGAUCGAUCGAUCC
modifications: 5'-triphosphate
apparent K (half saturation) (RIG-I (full length) [10]; hairpin, 30 bp, UUCG tetraloop, blunt end): 10.8 nM

B11: 5'ppp8L (ssRNA)
RNA: GGCGCGGCUUCGGCCGCGCC
modifications: 5'-triphosphate
apparent K (half saturation) (RIG-I (full length) [12]): 5.16 nM

B12: GC12 (dsRNA)
RNA 1: GCGCGCGCGCGC
RNA 2: GCGCGCGCGCGC
modifications: 5'-OH
apparent K (half saturation) (RIG-I (full length) [10]; palindromic blunt duplex): 13.1 nM

B13: GC22 (dsRNA)
RNA 1: GCGCGCGCGCGCGCGCGCGCGC
RNA 2: GCGCGCGCGCGCGCGCGCGCGC
modifications: 5'-OH
apparent K (half saturation) (RIG-I (full length) [13]): 27.3 nM

B14: 5'ppp20L (ssRNA)
RNA: GGAUCGAUCGAUCGAUCGGCUUCGGCCGAUCGAUCGAUCGAUCC
modifications: 5'-triphosphate
apparent K (half saturation) (RIG-I (full length) [7]): 10.1 nM
